Experiment [1] deals with 3 H1N1 strains (1999-2007). The experiment in a line: cell-based or functional assay.
Experiment [2] addresses full-length recombinant H7 HA (A/Netherlands/219/2003) on PER.C6 cells (influenza A virus (H7N7)). Briefly: FACS, IgG 5 µg/ml, HA-expressing PER.C6 cells; untransfected MFI 4.
The target in experiment [3] is full-length recombinant H3 HA (A/Wisconsin/67/2005) on PER.C6 cells (influenza A virus (H3N2)). The description is as above.
Experiment [4] concerns the target full-length recombinant H1 HA (A/New Caledonia/20/1999) on PER.C6 cells (influenza A virus (H1N1)). The description is as above.
In experiment [5] the target is HA of virus A/Johannesburg/33/94 (H3N2) (influenza A virus (H3N2)). The experiment in a line: cell-based or functional assay.
The target in experiment [6] is HA of virus A/Brisbane/59/2007 (H1N1) (influenza A virus (H1N1)). The experiment in a line: cell-based or functional assay.
Experiment [7] concerns the target HA of virus A/Hiroshima/52/2005 (H3N2) (influenza A virus (H3N2)). The experiment in a line: cell-based or functional assay.
Experiment [8] concerns the target HA of virus A/Chick/Germany/N/49 (H10) (influenza A virus (H10)). Briefly: cell-based or functional assay.
In experiment [9] the target is HA of virus A/Wisconsin/67/2005 (H3N2) (influenza A virus (H3N2)). Briefly: cell-based or functional assay.
In experiment [10] the target is HA of virus A/Panama/2000/1999 (H3N2) (influenza A virus (H3N2)). The experiment in a line: cell-based or functional assay.
Experiment [11] concerns the target HA of virus A/Solomon Islands/IVR-145 (H1N1) (influenza A virus (H1N1)). Briefly: cell-based or functional assay.
In experiment [12] the target is HA of virus A/New Caledonia/20/1999 (H1N1) (influenza A virus (H1N1)). The experiment in a line: cell-based or functional assay.
Experiment [13] deals with HA of virus A/Mallard/Netherlands/12/2000 (H7N3) (influenza A virus (H7N3)). The experiment in a line: cell-based or functional assay.
Experiment [14] concerns the target full-length recombinant H7 HA (A/Netherlands/219/2003) on PER.C6 cells (influenza A virus (H7N7)). Briefly: FACS, IgG 5 µg/ml, HA-expressing PER.C6 cells; untransfected MFI 21.
For experiment [15], the target named is full-length recombinant H3 HA (A/Wisconsin/67/2005) on PER.C6 cells (influenza A virus (H3N2)). The description is as above.
Experiment [16] deals with full-length recombinant H1 HA (A/New Caledonia/20/1999) on PER.C6 cells (influenza A virus (H1N1)). The description is as above.
Experiment [17] deals with full-length recombinant H7 HA (A/Netherlands/219/2003) on PER.C6 cells (influenza A virus (H7N7)). The experiment in a line: FACS, IgG 5 µg/ml, HA-expressing PER.C6 cells; untransfected MFI 6.
Experiment [18] has as its target full-length recombinant H3 HA (A/Wisconsin/67/2005) on PER.C6 cells (influenza A virus (H3N2)). The experiment is described as above.
For experiment [19], the target named is full-length recombinant H1 HA (A/New Caledonia/20/1999) on PER.C6 cells (influenza A virus (H1N1)). The experiment is described as above.

Bounds are passed on as bounds.

B1: CR8041 (antibody, V domains shown)
VH: QVQLVQSGAEVKKPGASVKVSCQASGYTFTSFGLSWVRQAPGQGPEWMGWISAYNGEIKYAQKFQGRVSMTTDTSTRTAYMEVRSLRPDDTAVYYCAREPPLYFSSWSLDF
VL: EIVLTQSPGTLSLSPGERATLSCRASQSVSSNYLAWFQQKPGQAPRLLIYGASRRATGIPDRFSGSGSGTDFTLTISRLEPEDFAVYYCQQYDSSPRT
The molecule B1 came in with an SK50 titer in experiment [1] greater than 40 µg/mL. Besides, the MFI was 120 MFI in [2], 364 MFI in experiment [3] and 4 MFI in experiment [4].

B2: CR8055 (antibody, V domains shown)
VH: EIVLTQSPDFQSVAPKEKVTITCRASRSIGSDLHWFQQRPDQSPKLLIKFASQSMSGVPSRFSGSGSGRDFTLTISSLEAEDAATYYCHQSSSLPLT
VL: EVQLVESGGGLVQPGGSLRLSCAASGFTDSVIFMSWVRQAPGKGLECVSIIYIDDSTYYADSVKGRFTISRHNSMGTVFLEMNSLRPDDTAVYYCATESGDFGDQTGPYHYYAMDV
As for B2, the Neutralization titer SK50 was 3.38 µg/mL in experiment [5]; greater than 40 µg/mL in experiment [6]; 1.15 µg/mL in [7]; greater than 40 µg/mL in experiment [8]; 1.07 µg/mL in experiment [9]; greater than 40 µg/mL in experiment [10]. Further, the Neutralization titer SK50 in experiment [11], in [12] and in experiment [13] was greater than 40 µg/mL throughout. Further, the MFI in experiment [14] amounted to 26 MFI; in experiment [15] it was 433 MFI; in experiment [16], 31 MFI.

B3: CR8050 (antibody, V domains shown)
VH: EIVMTQSPGTLSLSPGERATLSCRASQSVSRNYLAWYQQKPGLAPRLLISGASSRATGVPDRFSGRGSDTDFTLTISRLEPEDFAVYYCQHYGSVLVA
VL: QVQLQESGPGLVKPSETLSLTCTVSGGSVSSGTYYWSWIRQPPGKGLEWIGDISYSGSTNYNPSLKSRVTISRDTSKNLVSLKLTSVTAADTAVHYCARAMAAYNYDRGGYNDYYYMDV
In the case of B3, the Neutralization titer SK50 was 1.49 µg/mL in experiment [5]; greater than 40 µg/mL in experiment [8]; 1.77 µg/mL in [9]; 6.5 µg/mL in [10]; greater than 40 µg/mL in [13]. Besides, the MFI stood at 6 MFI in experiment [17], 282 MFI in [18] and 8 MFI in experiment [19].

The values above are taken from patent publication US20130309248A1.
